Laboratory results: patent publication US20240082183

Columns and labels:
[1] = target: SDHA (endogenous, in mitochondria isolated from mouse IECs and in C57BL/6 primary colonic epithelial cells), Q8K2B3
[2] = target: mutated SDHA protein with His Tag (mouse; Ile-Glu-Asp-Gly changed to Ile-Glu-Ala-Gly at the putative GzmB cleavage site), Q8K2B3
mutated SDHA protein with His Tag (mouse; Ile-Glu-Asp-Gly changed to Ile-Glu-Ala-Gly at the putative GzmB cleavage site), Q8K2B3, sequence (Q8K2B3 whole entry, looked up, change not shown): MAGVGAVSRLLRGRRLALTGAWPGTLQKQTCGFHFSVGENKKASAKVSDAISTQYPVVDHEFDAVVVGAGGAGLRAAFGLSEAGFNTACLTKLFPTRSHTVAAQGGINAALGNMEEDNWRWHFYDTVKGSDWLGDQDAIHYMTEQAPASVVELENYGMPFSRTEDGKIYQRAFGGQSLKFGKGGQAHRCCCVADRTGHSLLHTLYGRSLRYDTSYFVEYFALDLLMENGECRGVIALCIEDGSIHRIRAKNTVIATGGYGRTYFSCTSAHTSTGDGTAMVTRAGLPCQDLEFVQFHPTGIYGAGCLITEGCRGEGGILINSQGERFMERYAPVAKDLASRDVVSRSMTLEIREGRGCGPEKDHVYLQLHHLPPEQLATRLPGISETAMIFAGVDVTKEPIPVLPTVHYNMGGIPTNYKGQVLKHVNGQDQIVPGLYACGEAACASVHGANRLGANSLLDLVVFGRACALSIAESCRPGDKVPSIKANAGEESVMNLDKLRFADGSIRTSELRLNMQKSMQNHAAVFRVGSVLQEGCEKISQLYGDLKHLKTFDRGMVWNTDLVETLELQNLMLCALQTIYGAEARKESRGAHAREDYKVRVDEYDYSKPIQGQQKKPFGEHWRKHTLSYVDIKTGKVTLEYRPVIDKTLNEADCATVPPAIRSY

SDHA (endogenous, in mitochondria isolated from mouse IECs and in C57BL/6 primary colonic epithelial cells), Q8K2B3, sequence (Q8K2B3 43-664): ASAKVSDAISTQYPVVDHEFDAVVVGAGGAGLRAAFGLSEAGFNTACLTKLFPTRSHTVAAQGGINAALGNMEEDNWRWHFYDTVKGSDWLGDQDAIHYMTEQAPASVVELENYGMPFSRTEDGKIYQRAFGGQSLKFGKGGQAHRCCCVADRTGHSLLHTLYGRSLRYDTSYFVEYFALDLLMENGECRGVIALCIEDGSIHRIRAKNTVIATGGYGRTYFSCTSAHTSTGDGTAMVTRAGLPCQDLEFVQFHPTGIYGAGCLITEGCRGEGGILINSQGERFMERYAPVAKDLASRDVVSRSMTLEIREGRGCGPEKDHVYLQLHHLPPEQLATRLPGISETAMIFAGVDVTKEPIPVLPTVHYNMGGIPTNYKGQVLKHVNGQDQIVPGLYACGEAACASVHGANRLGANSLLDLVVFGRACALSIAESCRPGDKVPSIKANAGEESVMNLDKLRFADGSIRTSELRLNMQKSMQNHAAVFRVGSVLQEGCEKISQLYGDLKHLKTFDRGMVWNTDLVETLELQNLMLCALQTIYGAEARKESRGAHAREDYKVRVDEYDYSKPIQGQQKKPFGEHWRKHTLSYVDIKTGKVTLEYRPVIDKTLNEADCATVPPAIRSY

B1: recombinant mouse Granzyme B (protein)
chain: IIGGHEVKPHSRPYMALLSIKDQQPEAICGGFLIREDFVLTAAHCEGSIINVTLGAHNIKEQEKTQQVIPMVKCIPHPDYNPKTFSNDIMLLKLKSKAKRTRAVRPLNLPRRNVNVKPGDVCYVAGWGRMAPMGKYSNTLQEVELTVQKDRECESYFKNRYNKTNQICAGDPKTKRASFRGDSGGPLVCKKVAAGIVSYGYKDGSPPRAFTKVSSFLSWIKKTMKSS
[1]
  proteolysis of SDHA in isolated IEC mitochondria (immunoblot of full length and cleaved SDHA): Treatment with GzmB caused proteolysis of SDHA with a reduction in SDHA with an increase in SDHA cleaved fragments
Serpin 3A
  proteolysis of SDHA by GzmB in PCECs treated with perforin, Granzyme B and Serpin 3A for 6 hours (immunoblot of SDHA): The presence of Serpin 3A prevented the proteolysis of SDHA by GzmB
[2]
  proteolysis of mutated SDHA protein (anti-His immunoblot, 6 hours): the mutation of the cleavage site prevented proteolysis of SDHA by GzmB
